In the test the target is HSV-2 glycoprotein E (gE2) as expressed by wild-type HSV-2 strain 2.12 (infected Cos cells; virion envelope) (Herpes Simplex Virus-2) (UniProt P89475). Description: rosetting of IgG-coated sheep red blood cells on Cos cells infected with HSV-2 at MOI 2, 12 h; uninfected cells and gE2-deletion virus formed none.
Chain of UniProt P89475 (P89475 21-545 limits assumed): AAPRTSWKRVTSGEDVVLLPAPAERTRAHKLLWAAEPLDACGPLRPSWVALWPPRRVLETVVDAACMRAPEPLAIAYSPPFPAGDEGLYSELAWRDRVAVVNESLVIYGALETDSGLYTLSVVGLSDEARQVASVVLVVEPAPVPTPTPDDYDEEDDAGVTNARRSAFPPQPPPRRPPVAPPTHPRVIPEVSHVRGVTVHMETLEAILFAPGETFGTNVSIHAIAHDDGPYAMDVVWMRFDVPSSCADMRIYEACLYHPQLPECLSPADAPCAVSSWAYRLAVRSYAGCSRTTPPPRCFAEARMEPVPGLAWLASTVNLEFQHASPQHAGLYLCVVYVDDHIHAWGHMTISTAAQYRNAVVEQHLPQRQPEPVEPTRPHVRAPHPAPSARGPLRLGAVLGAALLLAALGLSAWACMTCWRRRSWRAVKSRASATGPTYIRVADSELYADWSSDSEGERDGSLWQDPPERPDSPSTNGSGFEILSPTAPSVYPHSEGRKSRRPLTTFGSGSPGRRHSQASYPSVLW

For “rabbit anti-sheep IgG on sheep red blood cells (IgG-coated red blood cells) (antibody)”, the percent of infected cells forming rosettes came out at 36%.

These data come from patent US20130028925A1.
